In publication PMC6594588:

How the values were obtained:
[1] = biological target: T1, Flp(Y343F) (S. cerevisiae (2-micron plasmid)) (UniProt P03870)
T1 sequence: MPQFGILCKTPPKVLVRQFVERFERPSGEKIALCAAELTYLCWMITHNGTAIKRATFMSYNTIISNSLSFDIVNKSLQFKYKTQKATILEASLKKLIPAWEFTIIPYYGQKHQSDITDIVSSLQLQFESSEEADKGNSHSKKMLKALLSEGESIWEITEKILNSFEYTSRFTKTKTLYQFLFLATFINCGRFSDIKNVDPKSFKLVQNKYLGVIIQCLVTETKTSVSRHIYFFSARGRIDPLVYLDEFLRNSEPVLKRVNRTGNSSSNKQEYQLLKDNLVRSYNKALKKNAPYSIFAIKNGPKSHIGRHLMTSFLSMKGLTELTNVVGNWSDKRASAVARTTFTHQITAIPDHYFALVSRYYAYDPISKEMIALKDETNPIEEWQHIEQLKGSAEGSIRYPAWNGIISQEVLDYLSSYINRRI

[2] = biological target: Flp(Y343F)-SUMO (S. cerevisiae (2-micron plasmid) | not stated) (UniProt P03870)

strand cleavage complementation on separately pre-bound half-sites; cleavage yield against that of Flp(R191A) with Flp(Y343F) [1]: 1.5 fold | strand cleavage complementation on separately pre-bound half-sites; cleavage yield against that of Flp(R191A)-SUMO with Flp(Y343F)-SUMO [1]: 1.5 fold | strand cleavage complementation on separately pre-bound half-sites; cleavage yield against that of Flp(R191A) with Flp(Y343F)-SUMO [2]: 1.6 fold
Substance: Flp(R191A)-SUMO (from UniProt P03870 1-423; Q12306 1-96) (enzyme)
